This assay deals with fluorescently labeled WTp53DBD (MST assay) (UniProt P04637). Briefly: MST; FIG. 3D; myristoylated.

The text below walks through data of US20220251159A1.

Chain of fluorescently labeled WTp53DBD (MST assay) (P04637 94-312): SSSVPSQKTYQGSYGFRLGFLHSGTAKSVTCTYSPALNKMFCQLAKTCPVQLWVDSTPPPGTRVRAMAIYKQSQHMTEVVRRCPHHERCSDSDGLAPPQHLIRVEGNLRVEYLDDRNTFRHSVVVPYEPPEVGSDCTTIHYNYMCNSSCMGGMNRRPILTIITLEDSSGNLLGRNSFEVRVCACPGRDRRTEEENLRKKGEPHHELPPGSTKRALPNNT

As usually defined, the Kd is the equilibrium constant for the complex coming apart. For pCAP-402 myr-HSTPHPD, the Kd came to 30 µM.
